Source: patent US20160369010A1 (AstraZeneca / MedImmune, published 2016)
Where two headings read alike, the source gives them in different places.

Columns and labels:
[1] = target: T1, Recombinant human Avi_PCSK9_Flag_His (human, UniProt Q8NBP7 31-692, biotinylated in the HTRF and LDL-R competition assays); experiment: HTRF epitope competition: unlabelled compound titrated against a DyLight 650-labelled anti-PCSK9 antibody for biotinylated human PCSK9; % specific binding [panel A]
T1 construct: In-house protein; also called human PCSK9; huPCSK9
Description: (§1) PCSK9 activity of each peptide-antibody fusions was assessed using Homogenous Time Resolved Fluorescence (HTRF) epitope competition assays.
(§2) For the assay all samples and reagents were prepared in assay buffer containing 1X Phosphate Buffered Saline, 0.1% BSA (Sigma A9576) and 0.4M Potassium Fluoride. Test samples of peptide-antibody fusions or control antibodies were prepared in 384 well polypropylene plates by 3-fold serial dilutions. […] Delta F% was then calculated using the following equation.

[2] = target: T1, Recombinant human Avi_PCSK9_Flag_His; experiment: binding ELISA: human PCSK9 coated at 10 ug/mL, compound at 100 ug/mL, detection with cryptate-labelled Fc-specific anti-human IgG; fluorescence counts
Description: (§3) After plate blocking with 1× Phosphate Buffered Saline, 3% skimmed milk, compounds were added at 100 ug/mL in PBS and incubated for 2 h at room temperature before washing. Bound compounds were detected using cryptate labelled Fc specific anti human IgG (Perkin Elmer) diluted at 100 ng/mL in Delfia Buffer (Perkin Elmer).

[3] = target: T1, Recombinant human Avi_PCSK9_Flag_His; experiment: HTRF epitope competition: unlabelled compound titrated against a DyLight 650-labelled anti-PCSK9 antibody for biotinylated human PCSK9; % specific binding [panel E]
Description: as §1, §2

[4] = target: T1, Recombinant human Avi_PCSK9_Flag_His; experiment: binding ELISA on coated human PCSK9 (10 ug/mL), compound at 100 ug/mL, detection with cryptate labelled Fc specific anti human IgG
Description: as §3

[5] = target: T1, Recombinant human Avi_PCSK9_Flag_His; experiment: HTRF epitope competition: unlabelled compound titrated against a DyLight 650-labelled anti-PCSK9 antibody for biotinylated human PCSK9; % specific binding [panel E]; remark: listed apart in the source
Description: as §1, §2

[6] = target: T1, Recombinant human Avi_PCSK9_Flag_His; experiment: HTRF epitope competition: unlabelled compound titrated against a DyLight 650-labelled anti-PCSK9 antibody for biotinylated human PCSK9; % specific binding [panel C]
Description: as §1, §2

[7] = target: T1, Recombinant human Avi_PCSK9_Flag_His
[8] = target: T1, Recombinant human Avi_PCSK9_Flag_His; experiment: HTRF epitope competition: unlabelled compound titrated against a DyLight 650-labelled anti-PCSK9 antibody for biotinylated human PCSK9; % specific binding [panel F]
Description: as §1, §2

[9] = target: T2, recombinant human B7-H1 (in house) (human, UniProt Q9NZQ7 19-238, limits assumed); experiment: binding ELISA on coated human B7-H1 (5 ug/mL), compound at 10 ug/mL, detection with cryptate labelled Fc specific anti human IgG
T2 sequence (Q9NZQ7 19-238 limits assumed): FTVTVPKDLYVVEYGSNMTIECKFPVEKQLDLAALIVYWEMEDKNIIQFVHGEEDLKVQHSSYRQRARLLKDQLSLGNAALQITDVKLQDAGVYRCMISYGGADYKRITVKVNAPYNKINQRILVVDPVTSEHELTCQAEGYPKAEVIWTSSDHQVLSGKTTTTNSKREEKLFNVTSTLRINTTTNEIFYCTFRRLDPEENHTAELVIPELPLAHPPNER
Description: (§4) Binding ELISA was performed by coating human B7-H1 (in house) at 5 ug/mL in 1× Phosphate Buffered Saline. After plate blocking with 1×Phosphate Buffered Saline, 3% skimmed milk, compounds were added at 10 ug/mL in PBS and incubated for 2 h at room temperature before washing.

[10] = target: T2, recombinant human B7-H1 (in house); experiment: binding ELISA on coated human B7-H1 (5 ug/mL), compound at 10 ug/mL, detection with cryptate labelled Fc specific anti human IgG; positive control
Description: as §4

[11] = target: T1, Recombinant human Avi_PCSK9_Flag_His; experiment: HTRF epitope competition: unlabelled compound titrated against a DyLight 650-labelled anti-PCSK9 antibody for biotinylated human PCSK9; % specific binding
Description: as §1, §2

[12] = target: T1, Recombinant human Avi_PCSK9_Flag_His; experiment: HTRF epitope competition: unlabelled compound titrated against a DyLight 650-labelled anti-PCSK9 antibody for biotinylated human PCSK9; % specific binding [panel F]; remark: listed apart in the source
Description: as §1, §2

[13] = target: T1, Recombinant human Avi_PCSK9_Flag_His; experiment: HTRF epitope competition: unlabelled compound titrated against a DyLight 650-labelled anti-PCSK9 antibody for biotinylated human PCSK9; % specific binding [panel A]; remark: listed apart in the source
Description: as §1, §2

B1: PC9#1 GLP-1 analogue light chain fusion (antibody, IgG1)
VH: QVQLVQSGAEVKKPGASVKVSCKASGYTFTSYYMHWVRQAPGQGLEWMGEISPFGGRTNYNEKFKSRVTMTRDTSTSTVYMELSSLRSEDTAVYYCARERPLYASDLWGQGTTVTVSS
VL: HGEGTFTSDVSSYLEEQAAKEFIAWLVKGGGGGGGSGGGGSGGGGSADIQMTQSPSSLSASVGDRVTITCRASQGISSALAWYQQKPGKAPKLLIYSASYRYTGVPSRFSGSGSGTDFTFTISSLQPEDIATYYCQQRYSLWRTFGQGTKLEIK
notes: IgG1-TM; peptide-linker at the N-terminus of VL; descriptive name; also called light chain peptide antibody fusion of PC9#1
IC50 (read off the curve) [1]: ~100 pM

B2: HS9_DSB7_V19A_L0 (antibody, IgG1)
VH: QVQLVQSGAEVKKPGASVKVSCKASGYTFTSYYMHWVRQAPGQGLEWMGEISPSGGSTSYNQKFQGRVTMTRDTSTSTVYMELSSLRSEDTAVYYCARERPLYASDLWGQGTTVTVSS
light: not shown
notes: VH see m27; IgG1-TM
binding result [2]: binds

B3: HS9_DSB7_V19A_L1 (antibody, IgG1)
VH: QVQLVQSGAEVKKPGASVKVSCKASGYTFTSYYMHWVRQAPGQGLEWMGEISPSGGSTSYNQKFQGRVTMTRDTSTSTVYMELSSLRSEDTAVYYCARERPLYASDLWGQGTTVTVSS
light: not shown
notes: VH see m27; IgG1-TM
binding result [2]: binds

B4: HS9_DSB7_V19A_L2 (antibody, IgG1)
VH: QVQLVQSGAEVKKPGASVKVSCKASGYTFTSYYMHWVRQAPGQGLEWMGEISPSGGSTSYNQKFQGRVTMTRDTSTSTVYMELSSLRSEDTAVYYCARERPLYASDLWGQGTTVTVSS
light: not shown
binding result [2]: binds

B5: PC9#5 GLP-1 analogue light chain fusion (antibody, IgG1, V domains shown)
VH: EMQLVESGGGLVQPGGSLRLSCAASGFTFSSHWMKWVRQAPGKGLEWVANINQDGSEKYYVDSVKGRFTISRDNAKNSLFLQMNSLRAEDTAVYYCARDIVLMVYDMDYYYYGMDVWGQGTTVTVSS
VL: not shown
notes: IgG1-TM; descriptive name; also called light chain peptide antibody fusion of PC9#5
IC50 (read off the curve) [3]: ~6 nM

B6: PC9#5_DSB7_V19A (antibody, IgG1, V domains shown)
VH: EMQLVESGGGLVQPGGSLRLSCAASGFTFSSHWMKWVRQAPGKGLEWVANINQDGSEKYYVDSVKGRFTISRDNAKNSLFLQMNSLRAEDTAVYYCARDIVLMVYDMDYYYYGMDVWGQGTTVTVSS
VL: not shown
notes: IgG1-TM
binding result [4]: binds

B7: PC9#5 GLP-1 analogue heavy chain fusion (antibody, IgG1)
VH: HGEGTFTSDVSSYLEEQAAKEFIAWLVKGGGGGGGSGGGGSGGGGSAEMQLVESGGGLVQPGGSLRLSCAASGFTFSSHWMKWVRQAPGKGLEWVANINQDGSEKYYVDSVKGRFTISRDNAKNSLFLQMNSLRAEDTAVYYCARDIVLMVYDMDYYYYGMDVWGQGTTVTVSS
VL: not shown
notes: IgG1-TM; descriptive name; also called heavy chain peptide antibody fusion of PC9#5
IC50 (read off the curve) [5]: ~100 pM

B8: PC9#3 GLP-1 analogue light chain fusion (antibody, IgG1)
VH: EVQLVESGGGLVQPGGSLRLSCAASGFTFNNYAMNWVRQAPGKGLDWVSTISGSGGTTNYADSVKGRFIISRDSSKHTLYLQMNSLRAEDTAVYYCAKDSNWGNFDLWGRGTLVTVSS
VL: HGEGTFTSDVSSYLEEQAAKEFIAWLVKGGGGGGGSGGGGSGGGGSADIVMTQSPDSLAVSLGERATINCKSSQSVLYRSNNRNFLGWYQQKPGQPPNLLIYWASTRESGVPDRFSGSGSGTDFTLTISSLQAEDVAVYYCQQYYTTPYTFGQGTKLEIK
notes: IgG1-TM; descriptive name; also called light chain peptide antibody fusion of PC9#3
IC50 (read off the curve) [6]: ~400 pM

B9: PC9#3_DSB7_V19A (antibody, IgG1)
VH: EVQLVESGGGLVQPGGSLRLSCAASGFTFNNYAMNWVRQAPGKGLDWVSTISGSGGTTNYADSVKGRFIISRDSSKHTLYLQMNSLRAEDTAVYYCAKDSNWGNFDLWGRGTLVTVSS
VL: HGEGTFTSDLSKQMEEECARLFIEWLKNGGPSSGAPPPGCGGGGGSGGGGSGGGGSADIVMTQSPDSLAVSLGERATINCKSSQSVLYRSNNRNFLGWYQQKPGQPPNLLIYWASTRESGVPDRFSGSGSGTDFTLTISSLQAEDVAVYYCQQYYTTPYTFGQGTKLEIK
notes: IgG1-TM
binding result [4]: binds

B10: PC9#7 GLP-1 analogue light chain fusion (antibody)
VH: QVQLVQSGAEVKKPGESLKISCKGSGYSFTNYWISWVRQMPGKGLEWMGIIYPGDSYTNYSPSFQGQVTISADKSISTAYLQWSSLKASDTAMYYCARDYWYKPLFDIWGQGTLVTVSS
VL: HGEGTFTSDVSSYLEEQAAKEFIAWLVKGGGGGGGSGGGGSGGGGSADIVMTQSPDSLAVSLGERATINCRSSQSVLYSSNNKNYLAWYQQKPGQPPKLLIYWASTRESGVPDRFSGSGSGTDFTLTISSLQAEDVAVYYCQQYSSFPITFGQGTKVEIK
IC50 (read off the curve) [7]: ~1 nM

B11: PC9#6 GLP-1 analogue heavy chain fusion (antibody, IgG1)
VH: HGEGTFTSDVSSYLEEQAAKEFIAWLVKGGGGGGGSGGGGSGGGGSAQVQLVQSGAEVKKPGSSVKVSCKASGGTFNSHAISWVRQAPGQGLEWMGGINPILGIANYAQKFQGRVTITADESTSTAYMELSSLRSEDTAVYYCARHYEIQIGRYGMNVYYLMYRFASWGQGTLVTVSS
VL: DIQMTQSPSSLSASVGDRVTITCRASQGIRSALNWYQQKPGKAPKLLIYNGSTLQSGVPSRFSGSGSGTDFTLTISSLQPEDFAVYYCQQFDGDPTFGQGTKVEIK
notes: IgG1-TM; descriptive name; also called heavy chain peptide antibody fusion of PC9#6
IC50 (read off the curve) [8]: ~600 pM

B12: Fusion 2.7A4 DSB7 V19A (antibody)
VH: EVQLVESGGGLVKPGGSLRLSCAASGFTFSTYSMNWVRQAPGKGLEWVSSISSSGDYIYYADSVKGRFTISRDNAKNSLYLQMNSLRAEDTAVYYCARDLVTSMVAFDYWGQGTLVTVSS
VL: HGEGTFTSDLSKQMEEECARLFIEWLKNGGPSSGAPPPGCGGGGGSGGGGSGGGGSASYELTQPPSVSVSPGQTARITCSGDALPQKYVFWYQQKSGQAPVLVIYEDSKRPSGIPERFSGSSSGTMATLTISGAQVEDEADYYCYSTDRSGNHRVFGGGTKLTVL
notes: Peptide-linker on the light chain of the anti-B7-H1 antibody
binding result [9]: binds

B13: anti-B7-H1 antibody 2.7A4 (antibody, V domains shown)
VH: EVQLVESGGGLVKPGGSLRLSCAASGFTFSTYSMNWVRQAPGKGLEWVSSISSSGDYIYYADSVKGRFTISRDNAKNSLYLQMNSLRAEDTAVYYCARDLVTSMVAFDYWGQGTLVTVSS
VL: SYELTQPPSVSVSPGQTARITCSGDALPQKYVFWYQQKSGQAPVLVIYEDSKRPSGIPERFSGSSSGTMATLTISGAQVEDEADYYCYSTDRSGNHRVFGGGTKLTVL
binding result [10]: binds

B14: PC9#7 GLP-1 analogue heavy chain fusion (antibody, IgG1)
VH: HGEGTFTSDVSSYLEEQAAKEFIAWLVKGGGGGGGSGGGGSGGGGSAQVQLVQSGAEVKKPGESLKISCKGSGYSFTNYWISWVRQMPGKGLEWMGIIYPGDSYTNYSPSFQGQVTISADKSISTAYLQWSSLKASDTAMYYCARDYWYKPLFDIWGQGTLVTVSS
VL: not shown
notes: IgG1-TM; descriptive name; also called heavy chain peptide antibody fusion of PC9#7
IC50 (read off the curve) [11]: ~100 pM

B15: PC9#6 GLP-1 analogue light chain fusion (antibody, IgG1)
VH: QVQLVQSGAEVKKPGSSVKVSCKASGGTFNSHAISWVRQAPGQGLEWMGGINPILGIANYAQKFQGRVTITADESTSTAYMELSSLRSEDTAVYYCARHYEIQIGRYGMNVYYLMYRFASWGQGTLVTVSS
VL: HGEGTFTSDVSSYLEEQAAKEFIAWLVKGGGGGGGSGGGGSGGGGSADIQMTQSPSSLSASVGDRVTITCRASQGIRSALNWYQQKPGKAPKLLIYNGSTLQSGVPSRFSGSGSGTDFTLTISSLQPEDFAVYYCQQFDGDPTFGQGTKVEIK
notes: IgG1-TM; descriptive name; also called light chain peptide antibody fusion of PC9#6
binding result [12]: binds

B16: PC9#1 GLP-1 analogue heavy chain fusion (antibody, IgG1)
VH: HGEGTFTSDVSSYLEEQAAKEFIAWLVKGGGGGGGSGGGGSGGGGSAQVQLVQSGAEVKKPGASVKVSCKASGYTFTSYYMHWVRQAPGQGLEWMGEISPFGGRTNYNEKFKSRVTMTRDTSTSTVYMELSSLRSEDTAVYYCARERPLYASDLWGQGTTVTVSS
VL: DIQMTQSPSSLSASVGDRVTITCRASQGISSALAWYQQKPGKAPKLLIYSASYRYTGVPSRFSGSGSGTDFTFTISSLQPEDIATYYCQQRYSLWRTFGQGTKLEIK
notes: IgG1-TM; peptide-linker at the N-terminus of VH; also called heavy chain peptide antibody fusion of PC9#1
IC50 (read off the curve) [13]: ~60 pM
